Laboratory results from article PMC12626770 (Protein Science : A Publication of the Protein Society, 2025).

Molecular target: T1, Human transferrin receptor 1 (TfR), avi-tagged, biotinylated (human, UniProt P02786 101-760)
T1 construct: also called biotinylated TfR
Assay: flow cytometry on cells; yeast surface display titration; varied TfR concentration, normalized MFU fitted non-linearly, averaged from three experiments; apparent Kd
Conditions: one partner purified

T1 sequence (P02786 101-760): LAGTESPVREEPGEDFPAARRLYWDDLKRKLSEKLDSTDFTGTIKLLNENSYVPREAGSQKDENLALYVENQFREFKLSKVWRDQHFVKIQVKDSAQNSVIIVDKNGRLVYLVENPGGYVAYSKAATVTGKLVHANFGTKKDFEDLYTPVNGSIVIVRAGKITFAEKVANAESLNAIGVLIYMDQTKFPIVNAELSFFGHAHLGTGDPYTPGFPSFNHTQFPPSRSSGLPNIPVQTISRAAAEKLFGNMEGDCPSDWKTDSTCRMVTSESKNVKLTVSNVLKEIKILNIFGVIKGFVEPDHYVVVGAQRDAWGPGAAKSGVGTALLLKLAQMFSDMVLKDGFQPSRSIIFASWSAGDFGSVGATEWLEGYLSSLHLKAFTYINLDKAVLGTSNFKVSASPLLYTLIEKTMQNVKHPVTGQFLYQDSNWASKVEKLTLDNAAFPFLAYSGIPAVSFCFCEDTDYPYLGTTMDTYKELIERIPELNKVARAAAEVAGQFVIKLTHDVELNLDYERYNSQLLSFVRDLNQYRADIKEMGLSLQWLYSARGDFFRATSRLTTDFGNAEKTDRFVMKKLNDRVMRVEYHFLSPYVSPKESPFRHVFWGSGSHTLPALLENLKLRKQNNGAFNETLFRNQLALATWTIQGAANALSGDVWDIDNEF

Kd: 305 ± 55 nM
B1: TB14.3A T78I (S4.4), yeast surface displayed (designed binder)
chain: MEKRFYVLLIIVEDRKKAYRQVNELLHNFSEYILLRMGQDHRERYQSTIALVLKVDNDAIGALSGKLGQISGVKVMTIPEKRGSLE
modifications: biotinylated
